Where “and” joins values, the source holds several entries; their conditions need not be identical. Equal values may be shown once. Read-outs that look alike come from different tables or passages of the source.

The target of test [1] is T1, recombinant human CFD mutant 1 (R157A, R207A), His-tagged (human, UniProt P00746 26-253).
T1 construct: positions are linear positions in the mature protein; also called rhCFD-mut1-His; Mut1
As to the kind of experiment: ELISA. On the technique in general: ELISA stands for enzyme-linked immunosorbent assay.

Test [2] has as its target T2, human complement factor D purified from serum (human, UniProt P00746 26-253).
T2 construct: serum-purified (CompTech); also called hCFD-Comptech; CFD
Kind of test: SPR MX96.

The target of test [3] is T3, recombinant cynomolgus CFD, His-tagged (cynomolgus).
T3 construct: also called rcyCFD-His; recombinant Cyno-CFD
As to the kind of experiment: SPR MX96.

Test [4] has as its target T1, recombinant human CFD mutant 1 (R157A, …). Kind of test: SPR MX96.
For test [5], the target named is T2, human complement factor D purified from ….
Test [6] has as its target T1, recombinant human CFD mutant 1 (R157A, …). As to the kind of experiment: ELISA. The source holds these as a separate data set.
Test [7] deals with T4, recombinant human CFD, His-tagged (human, UniProt P00746 26-253).
T4 construct: also called rhCFD-His
As to the kind of experiment: SPR MX96.

For test [8], the target named is T2, human complement factor D purified from …. The source holds these as a separate data set.
Test [9] concerns the target T1, recombinant human CFD mutant 1 (R157A, …). Kind of test: ELISA, Mut1 Binding, Bin 3.
In test [10] the target is T5, human Complement Factor D (serum purified) (human, UniProt P00746 26-253). Kind of test: cell-based or functional assay.
Test [11] addresses T5, human Complement Factor D (serum …). As to the kind of experiment: KinExA in solution, 37 degrees; free CFD captured on OG1931 beads and detected with KCD004-A647. A general note: A kinetic exclusion assay measures how much of one partner remains free in solution.
Test [12] has the same target. As to the kind of experiment: SPR (Biacore), antibody captured on Protein A chip, serum purified human CFD as analyte, 25 degrees. (In general: In SPR one partner is held on a chip, and binding of the other changes the refractive index at the surface.)
The target in test [13] is T6, human Complement Factor D (CFD), purified from human serum (human, UniProt P00746 26-253).
T6 construct: serum purified (CompTech A136); also called serum purified CFD; hCFD-Comptech
Kind of test: SPR Biacore, full-length IgG captured on protein A chip, serum purified CFD.

Test [14] concerns the target T7, serum purified human Complement Factor D (human, UniProt P00746 26-253).
T7 construct: Serum purified protein flowed over the captured antibodies; also called CFD; human CFD
Kind of test: SPR Biacore, antibody on protein A chip, single cycle kinetics, 25 C.

The target in test [15] is T7, serum purified human Complement Factor D. As to the kind of experiment: SPR Biacore, antibody on protein A chip, single cycle kinetics, 37 C.
The target is the same in test [16]. As to the kind of experiment: SPR Biacore, antibody on protein A chip, single cycle kinetics, 25 C. The source holds these as a separate data set.
For test [17] the target is unchanged. Kind of test: SPR Biacore, antibody on protein A chip, single cycle kinetics, 37 C. The source holds these as a separate data set.
Test [18] concerns the target T8, recombinant cynomologus Complement Factor D (cynomolgus).
T8 construct: also called cyCFD; cyno CFD
As to the kind of experiment: SPR Biacore, antibody on protein A chip, cyCFD in flow, single cycle kinetics, 37 C.

The target in test [19] is T7, serum purified human Complement Factor D. Kind of test: SPR Biacore T200, biotinylated OG1965 captured on neutravidin CM5 chip, single cycle kinetics, 25 C.
Test [20] has the same target. Kind of test: SPR Biacore T200, biotinylated OG1965 captured on neutravidin CM5 chip, single cycle kinetics, 37 C.
In test [21] the target is T6, human Complement Factor D (CFD), …. Kind of test: SPR MX96, mAbs amine-coupled, CFD injected.
Test [22] deals with T5, human Complement Factor D (serum …). As to the kind of experiment: SPR (Biacore), conjugate captured on Protein A chip, serum purified human CFD as analyte, 25 degrees.

T1 sequence (P00746 26-253 R182A/R232A limits assumed): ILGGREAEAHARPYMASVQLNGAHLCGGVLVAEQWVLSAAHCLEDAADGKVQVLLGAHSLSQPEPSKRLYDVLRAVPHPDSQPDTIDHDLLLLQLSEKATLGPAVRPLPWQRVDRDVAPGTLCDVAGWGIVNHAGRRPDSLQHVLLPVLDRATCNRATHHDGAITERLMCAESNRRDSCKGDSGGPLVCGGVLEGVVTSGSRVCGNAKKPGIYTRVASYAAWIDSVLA
T5 sequence (P00746 26-253): as the sequence (P00746 26-253 R182A/R232A limits assumed) above, with A157R, A207R counted along it
T6 sequence (P00746 26-253): as the sequence (P00746 26-253 R182A/R232A limits assumed) above, with A157R, A207R counted along it
T2 sequence (P00746 26-253): as the sequence (P00746 26-253 R182A/R232A limits assumed) above, with A157R, A207R counted along it
T4 sequence (P00746 26-253 limits assumed): as the sequence (P00746 26-253 R182A/R232A limits assumed) above, with A157R, A207R counted along it
T7 sequence (P00746 26-253): as the sequence (P00746 26-253 R182A/R232A limits assumed) above, with A157R, A207R counted along it

B1: KCD048 (antibody, V domains shown)
VH: EVQLQQSGADLVKPGASVKLSCTASGFNIKATYMHWVRQRPEKGLEWIGRIDPANGHTIYDPQFQGKATITSDTSSNTAYLQLNSLTSEDTAVYYCAEAMDYWGQGTSVTVSS
VL: QIVLTQSPAIMSASPGEKVTLTCSATSSVSYMYWYQQKPGSSPRLLIYDTSNLASGVPVRFSGSGSGTSYSLTISRMEAEDDATYYCQQWSNYPFTFGGGTKLEIK
notes: chimeric
In the case of B1, the “Mut1 Binding (% wt)” value in test [1] turned out to be 62.3 % wt. In addition, the Kd (commonly the concentration at which binding is half-saturated) in test [2] turned out to be 1.9 nM; in [3], 21 nM; in test [4], 0.83 nM; in test [5], 0.997 nM.

B2: KCD009 (antibody, V domains shown)
VH: QIQLVQSGPELKKPGETVKISCKASGYIFRNYGMNWVKQGPGKGLKWMGWINTYTGEPTYADDFKGRFAFSLETSASTAYLQISNLKNEDTATYFCVRDGPGFAYWGQGTLVTVSA
VL: DVLMTQTPLSLPVSLGDQASISCRSSLIIEHSDGNTYLEWYLQKPGQSPKLLIYKVSNRFSGVPDRFSGSGSGTDFTLKISRVEADDLGVYYCFQGSHVPVTFGAGTNLELK
notes: chimeric
As to B2, the “Mut1 Binding (% wt)” value in [6] amounted to 5.15 % wt. For the same molecule, the Kd in [2] turned out to be 5.6 nM; in test [3], 9.9 nM; in test [7], 4 nM; in test [8], 3.47 nM. The binding result in test [9] was “no binding”.

B3: OG1965 (antibody, IgG1, V domains shown)
VH: EVQLVESGGGLVQPGGSLRLSCAASGYTFTDYYINWVRQAPGKGLEWIGDINPITGDTDYNADFKRRFTFSLDTSKSTAYLQMSSLRAEDTAVYYCTREGPSFAYWGQGTLVTVSS
VL: DIQLTQSPSSLSASVGDRVTITCRSSQTIVHSNGDTYLEWYQQKPGKAPNLLIRKVSNRFSGVPSRFSGSGSGTDFTLTISSLQPEDFATYYCFQGSHVPVTFGQGTKVEIKR
notes: also called 34I54I59D84S/54R101V; 34I54I59D84S (heavy) / 54R101V (light)
Take B3: the “EC50 (nM) in hemolysis assay (rabbit RBC, normal human serum)” value in test [10] came to 1.74 nM. Besides, in test [11], the Kd was 0.00586 nM and the kon (in general, the rate constant with which the complex forms) stood at 3.06e+07 M⁻¹ s⁻¹. In test [12], this molecule yielded a Kd of 0.0025 nM and a kon of 2.52e+07 M⁻¹ s⁻¹.

B4: KCD119 TAF (antibody, V domains shown)
VH: EVQLVESGGGLVQPGGSLRLSCAASGYTFTDYYMNWVRQAPGKGLEWIGDINPNTGDTSYNADFKRRFTFSLDTSKSTAYLQMNSLRAEDTAVYYCTREGPSFAYWGQGTLVTVSS
VL: DIQLTQSPSSLSASVGDRVTITCRSSQTIVHSNGDTYLEWYQQKPGKAPNLLIYKVSNRFSGVPSRFSGSGSGTDFTLTISSLQPEDFATYYCFQGSHVPPTFGQGTKVEIK
notes: full IgG captured on protein A; also called TAF KCD119; KCD119 CDRs grafted into the TAF framework
On to B4, for which the affinity in test [13], expressed as Kd, was 0.23 nM.

B5: 34I54I59D84S / 54R101V (antibody, human IgG1, V domains shown)
VH: EVQLVESGGGLVQPGGSLRLSCAASGYTFTDYYINWVRQAPGKGLEWIGDINPITGDTDYNADFKRRFTFSLDTSKSTAYLQMSSLRAEDTAVYYCTREGPSFAYWGQGTLVTVSS
VL: DIQLTQSPSSLSASVGDRVTITCRSSQTIVHSNGDTYLEWYQQKPGKAPNLLIRKVSNRFSGVPSRFSGSGSGTDFTLTISSLQPEDFATYYCFQGSHVPVTFGQGTKVEIKR
notes: Human IgG1 kappa; also called OG1965
Regarding B5, the Kd in [14] came to 0.00437 nM; in [15], 0.00504 nM; in test [16], 0.00437 nM; in test [17], 0.00504 nM; in [18], 0.028 nM; in [19] it was 0.00364 nM. Moreover, in test [20], the affinity, expressed as Kd, was 0.00956 nM. Further, the koff (as a rule, the first-order rate constant of dissociation) in test [14] was determined as 9.02e-05 s⁻¹; in test [15], 0.000202 s⁻¹; in [16] it was 9.02e-05 s⁻¹; in test [17] it was 0.000202 s⁻¹; in test [18], 0.000978 s⁻¹; in test [19], 5.08e-05 s⁻¹. This molecule also showed a koff in test [20] of 0.000241 s⁻¹. The kon in [14] came to 2.06e+07 M⁻¹ s⁻¹; in test [15], 4e+07 M⁻¹ s⁻¹; in test [16], 2.06e+07 M⁻¹ s⁻¹; in test [17], 4e+07 M⁻¹ s⁻¹; in test [18], 3.49e+07 M⁻¹ s⁻¹; in [19], 1.4e+07 M⁻¹ s⁻¹. In [20], the kon came out at 2.55e+07 M⁻¹ s⁻¹.

B6: KCD119 (antibody, V domains shown)
VH: EVQLQQSGPELVKPGASVKISCKASGYTFTDYYTNWMRQRHGESLEWIGDINPNTGDTSYNQKFRVKATLTVDKSSGTAYMGLRSLTSEDSAVYYCTREGPSFAYWGQGTLVTVSA
VL: DVLMTQTPLSLPVSLGDQASISCRSSQTIVHSNGDTYLEWYLQKPGQSPNLLIYKVSNRFSGVPDRFSGSGSGTDFTLKISRVEAEDLGVYYCFQGSHVPPTFGGGTTLEIK
notes: mouse variable domains; full IgG, captured on protein A; also called KCD119-mouse monoclonal antibody; Mouse KCD119
Regarding B6, the Kd in test [21] was 0.375 nM and 0.857 nM; in [13], 0.04 nM.

B7: KCD070 (antibody, V domains shown)
VH: EIQLQQTGPELVKPGASVKISCKASGYSFTDYIILWVKQSHGKSLEWIGNINPYYDYTSYNLKFKGKATLTVDKSSSTAYMQLNSLTSEDSAVYYCARSDGYYGGDYWGQGTSVTVSS
VL: DIVMTQSHKFMSTSVGDRVSITCKASQDVGTAVAWYQQKPGQSPKLLIYWASTRHTGVPDRFTGSGSGTDFTLTINNVQSEDLADYFCQQYSSYPWTFGGGTTLEIK
notes: chimeric
As to B7, the “Mut1 Binding (% wt)” value in test [1] came out at 84.6 % wt. The Kd in [2] turned out to be 3.8 nM; in test [3], 4.9 nM; in test [7] it was 3.3 nM; in test [4] it was 0.7 nM; in test [5] it was 1.77 nM.

B8: KCD023 (antibody, V domains shown)
VH: EVLLQQSGPELVKPGASVKIPCKASGYTFTDYNIDWVKQSHGKSLEWIGDINPNNGGINYNQKFKGKATLTVDKSSSTAYMELRSLTSEDTAVYYCGTGDYAYWGQGTLVTVSA
VL: QIVLTQSPAFMSASPGEKVTLTCSASSSVSSSYLYWYQQKPGSSPKLWIYSTSNLASGVPGRFSGSGSGTSYSLTISSMEAEDAASYFCHQWTSYPPTFGAGTKLELK
notes: chimeric
For B8, the “Mut1 Binding (% wt)” value in test [6] is 7.64 % wt. The Kd in test [2] stood at 5.3 nM; in [3], 6 nM; in [7] it was 4.1 nM; in test [8], 1770 nM. In [9], the binding result was “no binding”.

B9: OG1970 (other)
heavy: EVQLVESGGGLVQPGGSLRLSCAASGYTFTDYYINWVRQAPGKGLEWIGDINPITGDTDYNADFKRRFTFSLDTSKSTAYLQMSSLRAEDTAVYYCTREGPSFAYWGQGTLVTVSSASTKGPSVFPLAPSSKSTSGGTAALGCLVKDYFPEPVTVSWNSGALTSGVHTFPAVLQSSGLYSLSSVVTVPSSSLGTQTYICNVNHKPSNTKVDKKVEPKSCDKTHTCPPCPAPEAAGAPSVFLFPPKPKDTLMISRTPEVTCVVVDVSHEDPEVKFNWYVDGVEVHNAKTKPREEQYNSTYRVVSVLTVLHQDWLNGKEYKCKVSNKALPAPIEKTISKAKGQPREPQVYTLPPSREEMTKNQVSLTCLVKGFYPSDIAVEWESNGQPENNYKTTPPVLDSDGSFFLYSKLTVDKSRWQQGNVFSCSVMHEALHNHYTQKSLSCSPGK
light: DIQLTQSPSSLSASVGDRVTITCRSSQTIVHSNGDTYLEWYQQKPGKAPNLLIRKVSNRFSGVPSRFSGSGSGTDFTLTISSLQPEDFATYYCFQGSHVPVTFGQGTKVEIKRTVAAPSVFIFPPSDEQLKSGTASVVCLLNNFYPREAKVQWKVDNALQSGNSQESVTEQDSKDSTYSLSSTLTLSKADYEKHKVYACEVTHQGLSSPVTKSFNRGEC
modifications: polymer OG1802 (9-arm HEMA-PC polymer, about 750-800 kDa, maleimide) bonded through the sulfhydryl of C443 (EU numbering; 442C in SEQ ID NO: 183), on one of the heavy chains
notes: Antibody-polymer conjugate: decapped OG1965 conjugated to polymer OG1802; The stoichiometry of antibody to polymer is described as 1:1; also called OG1965 bioconjugate; OG1965 conjugated to polymer OG1802
Turning to B9, the “EC50 (nM) in hemolysis assay (rabbit RBC, normal human serum)” value in test [10] came to 1.65 nM. In [11], this molecule returned a Kd of 0.00807 nM and a kon of 3.67e+07 M⁻¹ s⁻¹. In [22], this molecule showed a Kd of 0.00614 nM and a kon of 2.16e+07 M⁻¹ s⁻¹.

The values above are taken from patent US20180334496A1 (KODIAK SCIENCES, published 2018).
